{
  "source": "paper PMC7448930",
  "molecular_target": "HCoV-19 fusion core (HR1 and HR2 linked with a peptide linker) (HCoV-19)",
  "assay": "crystal structure; HR1 and HR2 linked on one chain by a peptide linker; 1.5 Å; one HR1/HR2 complex in the asymmetric unit, trimer by symmetry operations",
  "data": [
    {"substance": "HCoV-19 fusion core (HR1 and HR2 linked with a peptide linker) (domain or fragment)", "values": [
      {"measurement": "stoichiometry N", "value": 3}
    ]}
  ]
}
